Results published in patent US20220062373A1.

Molecular target: Endogenous murine CD206 on M2-polarized bone marrow-derived macrophages (mouse) (UniProt Q61830)
Test: LC-MS/MS proteomics of CD206 complexes pulled down with biotinylated RP-182 from M2 BMDMs

Chain of Endogenous murine CD206 on M2-polarized bone marrow-derived macrophages (mouse) (Q61830 20-1456): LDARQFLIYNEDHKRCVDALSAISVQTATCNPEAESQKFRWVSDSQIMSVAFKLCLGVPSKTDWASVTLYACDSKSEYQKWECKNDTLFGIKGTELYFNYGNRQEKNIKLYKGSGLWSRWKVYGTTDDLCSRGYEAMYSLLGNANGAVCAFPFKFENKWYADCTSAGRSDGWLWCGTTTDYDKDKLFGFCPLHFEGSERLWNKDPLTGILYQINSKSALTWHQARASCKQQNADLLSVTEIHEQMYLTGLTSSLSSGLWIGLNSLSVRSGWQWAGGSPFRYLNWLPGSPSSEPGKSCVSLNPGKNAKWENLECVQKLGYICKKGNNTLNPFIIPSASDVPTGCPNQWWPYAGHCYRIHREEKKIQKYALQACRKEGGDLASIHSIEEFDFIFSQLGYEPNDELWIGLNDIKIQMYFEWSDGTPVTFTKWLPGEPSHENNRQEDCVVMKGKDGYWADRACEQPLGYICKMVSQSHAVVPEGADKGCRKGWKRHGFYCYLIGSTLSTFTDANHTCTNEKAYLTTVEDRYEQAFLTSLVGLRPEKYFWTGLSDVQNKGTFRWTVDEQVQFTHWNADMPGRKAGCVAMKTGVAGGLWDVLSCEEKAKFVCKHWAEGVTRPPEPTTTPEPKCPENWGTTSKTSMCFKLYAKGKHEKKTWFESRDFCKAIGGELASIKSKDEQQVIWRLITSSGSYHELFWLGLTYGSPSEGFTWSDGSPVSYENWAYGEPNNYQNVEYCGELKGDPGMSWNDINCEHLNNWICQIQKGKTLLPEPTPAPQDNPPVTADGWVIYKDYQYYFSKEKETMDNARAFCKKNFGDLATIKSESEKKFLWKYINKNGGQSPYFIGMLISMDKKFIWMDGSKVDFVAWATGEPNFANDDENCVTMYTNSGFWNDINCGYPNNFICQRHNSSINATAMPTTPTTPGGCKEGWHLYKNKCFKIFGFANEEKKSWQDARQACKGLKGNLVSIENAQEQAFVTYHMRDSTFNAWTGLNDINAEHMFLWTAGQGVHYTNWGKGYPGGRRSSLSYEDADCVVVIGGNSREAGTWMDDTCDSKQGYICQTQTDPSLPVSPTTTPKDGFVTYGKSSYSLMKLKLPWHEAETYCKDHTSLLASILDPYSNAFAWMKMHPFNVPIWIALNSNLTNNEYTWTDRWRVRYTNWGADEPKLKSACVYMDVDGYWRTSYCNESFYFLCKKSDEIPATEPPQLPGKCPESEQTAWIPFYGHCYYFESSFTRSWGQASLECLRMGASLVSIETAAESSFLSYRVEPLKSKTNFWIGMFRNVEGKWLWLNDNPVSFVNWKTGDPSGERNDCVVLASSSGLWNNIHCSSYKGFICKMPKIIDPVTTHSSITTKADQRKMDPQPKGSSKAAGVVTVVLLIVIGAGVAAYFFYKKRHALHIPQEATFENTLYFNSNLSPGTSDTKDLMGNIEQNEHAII

| Substance | fold enriched in CD206 complexes against control [fold] |
| --- | --- |
| IQ motif containing GTPase activating protein 1 (IQGAP1) (from UniProt Q9JKF1 2-1657) | 9 |
| IQ motif containing GTPase activating protein 2 (IQGAP2) (from UniProt Q3UQ44 1-1575) | 76 |
